Reference: paper PMC9440244, “Structures and implications of the nuclease domain of human parvovirus B19 NS1 protein”

Target: NS1_Nuc WT (nuclease domain of NS1) (human parvovirus B19 (variant …, UniProt A0A097C0M3 2-176))
Test: EMSA; 1 mM EDTA
Conditions: protein: recombinant, tags: His-SUMO removed by ULP1

Row | Binder | Kd (label: 5'-FAM, single strand) | Kd (label: 5'-FAM on 67-ori-top, partial duplex over NSBE1-NSBE4, top strand single-stranded elsewhere)
1 | 67-ori-top (ssDNA) DNA: AAAATTTAAAAGAAGACACCAAATCAGATGCCGCCGGTCGCCGCCGGTAGGCGGGACTTCCGGTACA | 12.3 µM | –
2 | 67-ori-top/40-ori-bot (mixed) DNA 1: AAAATTTAAAAGAAGACACCAAATCAGATGCCGCCGGTCGCCGCCGGTAGGCGGGACTTCCGGTACA DNA 2: TGTACCGGAAGTCCCGCCTACCGGCGGCGACCGGCGGCAT | – | ~1 µM
